Laboratory results from paper PMC9297946.

Target: extracellular domain (25-250) of the human EPO receptor EPOR (human) (UniProt P19235)
Test: SEC + other: RP-HPLC-MS of the isolated complex after dissociation; proteins mixed in solution under dilute conditions (about 0.3 mg EPOR per mL); gel filtration over an analytical Superdex 75 column; complex peak analysed by non-reducing SDS-PAGE, then dissociated with 0.2 % TFA (1 h) and analysed by RP-HPLC-MS for the ratio of the two proteins

| stoichiometry N | Substance |
| --- | --- |
| 1 EPO:EPOR | EPO A (synthetic asialo glycoform of human erythropoietin 1-166 with three biantennary N-glycans terminating with galactose) (from UniProt P01588 28-193) (ligand) |
| 1 EPO:EPOR | EPO S (synthetic sialylated glycoform of human erythropoietin 1-166 with three alpha-2,6-sialylated biantennary N-glycans) (from UniProt P01588 28-193) (ligand) |
